B1: F1*; the commonest letter at each place (parent)
chain: GAGACCGCAACTGAAAAGTTGTTATCACTTGTCGTAAGACACTTTGGATGGGTTGAAGTTCTGCACGTAGAAGCAAAAGGC

Variants of: B1
Test: fraction ligated after 30 min (ligated reads / total reads); higher = more ligase activity
Settings: with F1*sub RNA substrate (template-directed ligation), 42 °C
Summary of the method: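 Templates from an oligo pool were PCR-amplified, transcribed with T7 and gel-purified to give the ribozyme variants. Ligated and unligated products were separated on gel, reverse transcribed using barcoded primers, and read on a MiSeq. A quality filter of ≥20 was applied to core bases. Fraction ligated was taken as ligated reads as a share of all reads per variant.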

Row | Variant | fraction ligated
1 | A36C T44A | 0.827
2 | T35A T45G | 0.408
3 | T35G G55T | 0.809
4 | T35G G55C | 0.807
5 | T35G G55A | 0.819
6 | A36T A56C | 0.797
7 | A36T A56G | 0.795
8 | A36T A56T | 0.823
9 | T35G G50A | 0.659
10 | T35G G50T | 0.795
11 | T35G G50C | 0.486
12 | T35G T43C | 0.807
13 | T35G T43G | 0.801
14 | T35G T43A | 0.819
15 | A36C | 0.833
16 | A36G | 0.862
17 | A36T | 0.843
18 | A36C T45C | 0.753
19 | A36C T45A | 0.771
20 | A36C T45G | 0.362
21 | A37C T45C | 0.778
22 | A37C T45A | 0.78
23 | A37C T45G | 0.415
24 | A37C G47T | 0.406

Row | Variant | fraction ligated
25 | A37C G47A | 0.796
26 | A37C G47C | 0.444
27 | A36T G50T | 0.775
28 | A36T G50A | 0.642
29 | A36T G50C | 0.467
30 | T35C A41C | 0.777
31 | T35C A41T | 0.819
32 | T35C A41G | 0.783
33 | A36T G38A | 0.849
34 | A36T G38T | 0.834
35 | A36T G38C | 0.833
36 | A36G G47T | 0.0714
37 | A36G G47A | 0.764
38 | A36G G47C | 0.0195
39 | A36G G38C | 0.846
40 | A36G G38A | 0.828
41 | A36G G38T | 0.806
42 | T35G G46T | 0.784
43 | T35G G46A | 0.809
44 | T35G G46C | 0.803
45 | A36C C42G | 0.839
46 | A36C C42A | 0.852
47 | A36C C42T | 0.889
48 | A37C | 0.849

Row | Variant | fraction ligated
49 | A37G | 0.857
50 | T35C A57T | 0.825
51 | T35C A57G | 0.822
52 | T35C A57C | 0.813
53 | A37C G50A | 0.616
54 | A37C G50T | 0.787
55 | A37C G50C | 0.439
56 | A36C A48G | 0.784
57 | A36C A48T | 0.8
58 | A36C A48C | 0.778
59 | T35G T44G | 0.851
60 | T35G T44C | 0.854
61 | T35G T44A | 0.843
62 | A36C A37G | 0.825
63 | A36C A37T | 0.837
64 | A36C A37C | 0.821
65 | A36C C40T | 0.818
66 | A36C C40A | 0.804
67 | A36C C40G | 0.818
68 | T35C A56T | 0.796
69 | T35C A56C | 0.759
70 | T35C A56G | 0.782
71 | T35G G47A | 0.78
72 | T35G G47C | 0.222

Row | Variant | fraction ligated
73 | T35G G47T | 0.391
74 | A36C G47A | 0.81
75 | A36C G47C | 0.224
76 | A36C G47T | 0.356
77 | A37C G38C | 0.818
78 | A37C G38A | 0.836
79 | A37C G38T | 0.844
80 | T35G A57C | 0.805
81 | T35G A57G | 0.838
82 | T35G A57T | 0.804
83 | A37C A41C | 0.759
84 | A37C A41G | 0.79
85 | A37C A41T | 0.816
86 | T35C T43A | 0.839
87 | T35C T43C | 0.777
88 | T35C T43G | 0.797
89 | A37G A39T | 0.796
90 | A37G A39C | 0.776
91 | A37G A39G | 0.853
92 | A36C G46A | 0.793
93 | A36C G46T | 0.778
94 | A36C G46C | 0.784
95 | A36G A37G | 0.864
96 | A36G A37T | 0.872

Row | Variant | fraction ligated
97 | A36G A37C | 0.835
98 | A37C T44G | 0.859
99 | A37C T44C | 0.843
100 | A37C T44A | 0.84
101 | A36C T43A | 0.82
102 | A36C T43C | 0.806
103 | A36C T43G | 0.797
104 | T35C C42A | 0.841
105 | T35C C42G | 0.851
106 | T35C C42T | 0.856
107 | A37G A57C | 0.82
108 | A37G A57G | 0.859
109 | A37C A48C | 0.792
110 | A37C A48T | 0.775
111 | A37C A48G | 0.795
112 | A36T T44C | 0.82
113 | A36T T44G | 0.847
114 | A36T T44A | 0.844
115 | A36C G55C | 0.787
116 | A36C G55T | 0.797
117 | A36C G55A | 0.827
118 | A37C C42T | 0.857
119 | A37C C42G | 0.833
120 | A37C C42A | 0.849

Row | Variant | fraction ligated
121 | T35C C40T | 0.862
122 | T35C C40A | 0.84
123 | T35C C40G | 0.817
124 | T35G A48T | 0.789
125 | T35G A48G | 0.79
126 | T35G A48C | 0.755
127 | A36T C40G | 0.824
128 | A36T C40A | 0.823
129 | A36T C40T | 0.83
130 | A36C G50A | 0.619
131 | A36C G50C | 0.454
132 | A36C G50T | 0.746
133 | A37C C40A | 0.82
134 | A37C C40T | 0.858
135 | A37C C40G | 0.809
136 | A37C A39C | 0.782
137 | A37C A39G | 0.833
138 | A37C A39T | 0.807
139 | A36T A48G | 0.781
140 | A36T A48C | 0.767
141 | A36T A48T | 0.792
142 | A36C A56C | 0.804
143 | A36C A56T | 0.804
144 | A36C A56G | 0.794

Row | Variant | fraction ligated
145 | A36T G46T | 0.791
146 | A36T G46C | 0.787
147 | A36T G46A | 0.818
148 | A36C G38T | 0.838
149 | A36C G38A | 0.846
150 | A36C G38C | 0.838
151 | T35C A37G | 0.881
152 | T35C A37T | 0.847
153 | T35C A37C | 0.845
154 | A36G T49G | 0.761
155 | A36G T49C | 0.4
156 | A36G T49A | 0.725
157 | T35G | 0.839
158 | T35C | 0.839
159 | A36C A39C | 0.803
160 | A36C A39T | 0.802
161 | A36C A39G | 0.826
162 | A37C T43A | 0.832
163 | A37C T43C | 0.817
164 | A37C T43G | 0.806
165 | A36C A57C | 0.813
166 | A36C A57T | 0.844
167 | A36C A57G | 0.816
